{"source": "a protein production outcome set (Wang et al. 2014)", "test": "label from the status in PepcDB records"}
{"sequence": "MNTTQGEYTTTAKWLHWLMATLIALAWLIGFYVSDLPKGPEKAAIMAWHKGLGTAVLALITVRLAWRLLHPPPRLPDTLSPGLQRAAHSAHWTLYGLMIAQPLSGWAVSSANGYPVKLFGLITLPALVEKNEVLAQTFVEIHEFLAWGLALLVVGHVVMAIKHHHVDRNGILHRMLPGRRPTSD", "values": [{"measurement": "protein production", "value": "failed"}]}
{"sequence": "MTGSWLETLLLPFTVPFLRDAMIIALLVAVPTALLSCFLVLKGWALMGDAISHAVLPGVVLAYVAGLPLGVGAFAAGLGCALVTGYLKDNSRIKQDTVMGVVFSGMFGLGIVLHTSIRTDVHLDHILFGDMLGVGSSDLLESGLIALLVVGAIALKGRDLLLHAFDPQQARAIGLPVGLLHYGLLCLLALTIVGALKATGILLTVALLIGPGAIAFLFTRRFSSMLLAAVVISSLASVLGVYISLFLDSAPAPTIVLLLTLTFIAAFMVSRQRDRQRARGVDRPV", "values": [{"measurement": "protein production", "value": "failed"}]}
{"sequence": "MNDNYEVFAIKYATYQQRRRNENFLPADEHDAGLMPLDYYVWLLKSPARTILVDTGFNPPEAAARNREQSRCPIEALRLLDVAPDDIDDVIITHLHYDHAGNLEKIPRARFHIQDKEVEFATGRCMCHAPLRFAYSPADVSNFIHKLYAGRVVFHDGAGVVAPGVEVLHVGGHTKGLQAVRVMTQRGWVVLASDASHFYENLEAARPFPLVADVAEMLDGFERLVRAAGSPSHVVPGHDPAVMTRYPTHPRDPQGIALLHLPTLA", "values": [{"measurement": "protein production", "value": "failed"}]}
{"sequence": "MGFPKLETERLQLRELTLLDAETMFHYFSKESVIRYFGMDSFENIEQAKTTIQTFKNRYEEGSVFRWGIEKKGTGQLIGTCGFHLINHHHKRAEIGYELDDTYWGQGYASEALQAILTYGFETLQLIRIAAVVYVENKASQKLLSKAGFQEEGLLRKHMIQNGVAHDTILYSLLKEEWKK", "values": [{"measurement": "protein production", "value": "failed"}]}
{"sequence": "DLRSLFQTTVTEVRKLLVADRVMIIKVRQNKNFSWGEIQAEAQTDDKLCLLPPKERVPLSSRWIDHFAKGLILAMDDTDDQRADFDQSMLALAKANLVVPLFSGDRLWGVLSVHQCDGPRVWESSDIEFALKIALNLGVALQQAELLTESQRRSTALQSALGEVEAQKDYLARIAEEERALTRVIEGIRQTL", "values": [{"measurement": "protein production", "value": "failed"}]}
{"sequence": "MRRHRLSGQITLSMSVVVAIAVLMVFVGTFIFYSIYMTWFPPPPGPPPLLPEAPDFILIAIFLLLGLAIAIHAALRLTRRILAPLNSLAEGARKIAAGDLTARAVAGDRSLGETAQLVDDFNAMARRLEDAAESMTSWNAAIAHELRTPLTILRGRLQGLTDGVFEPSDELFRSLLVQVENLSRLVDDLRVVTLSDSQRLDMRVEPTDLANEVAQAVDAMRPALEGAGFSIRMTTEPVTLPCDGPRIRQALLALLENARRYATPGMIVIRMTLETFEVAIAVEDEGPGLSAEFAARAFDAFVRAEPSRSRQFGGSGLGLSVVRAIAEAHGGHARYSTSEKGGSVFEIVFPIDGASADSNAASCAPKV", "values": [{"measurement": "protein production", "value": "failed"}]}
{"sequence": "MQLSGRSSSGLGRAGQLLRRPEVLAFLPALSLLAYWLGGERALVFVALGLPLFYATVGAFRPAAPSVTPDGLALRPQVIASLDRVLQDRESTGRTTACLVLQFDGMDKLLDRHGRATQSEVLARCCDRLCSTLREGDTVARLEGGGLAVALHPVRRLDLQSVVLLAGRLQTAIAAPISVEGTRIHVTCSIGFCLAERTPAPTGRALLDAAQMAADEASRNGPGAVRAYALGMSRNRADRDADRGLLETALDTGQFTGWFQPQIRTEDGAIGGFEVLSRWQHPERGLLLPQDFLPAIERAGLSERLGEVMLFQALTALRHWDRAGLCVPCVAVNFSATDLRNPRLVDRLKWELDRFELTPARLSVEILETVVAEGASDVVVHNIAGLSACGFGVDLDDFGTGHASITTIRRFALRRLKIDRSFVTRADSDAAQRTMLAAIISMARQLGLETLAEGVETPGELATLTALGCGYLQGYAIARPMPLSDATAWLENRRVRLPLAARCATPGS", "values": [{"measurement": "protein production", "value": "failed"}]}
{"sequence": "MSNGNKSEKKTLILALVAGMCGDALLSWLTMSEVSFSIFPLIALVLAVQALYQEYLNNPVSEDIPLVGLACFFVGAFGHSAFIKAQYPEAGSNFFAIMVSMILLAWIGKKLGFMEKKTSAE", "values": [{"measurement": "protein production", "value": "failed"}]}
{"sequence": "MIANNIIPIIFLLIIVYGMFKGRKVYEWFLEGAKEGLMVCVKIFPALLAMMIAIRIFKDANLLNYLNNLLEPIVSLIGLPKDIVPLVLIKPLSGSGALGVYTELINTLGPDTREGLISSVIMGGTETIFYTITVYFGAVGIKKIRHTFWAALMADITAIIMAVLVVSMFFGL", "values": [{"measurement": "protein production", "value": "failed"}]}
{"sequence": "MSRRTTLRRVGLLVLGVNLLLVLLKAGVWLTTGSFAVQSEAVNSAADTAYSLVIVAGLYLTTRPPDFEHPHGHERIEPFVSLFVAAGIFAAGGFVLWNAGTALLTGNISVTQGPAAVLVLAFSAVAKYALYRYCLRAGTDRNSPALIATAKDNRNDILTAGAALVGVGGAMAGYPIADPLAALVVAIGIIYTGIEVVQENVTYLVGGAPPEDLRREILRRALDHPKVSGAHDVIAHYVGPEIDVSLHIEVEGDLTLFEAHDIETAVIKSIEELPEVDDAFIHVDPKELGEWKDDEEVERLADLE", "values": [{"measurement": "protein production", "value": "failed"}]}
{"sequence": "MSLAPYRVDFILLEHFSMASFTVAMDVLVTANLLRADSFQFTPLSLDGDRVLSDLGLELVATELSAAALKELDLLVVCGGLRTPLKYPELDRLLNDCAAHGMALGGLWNGAWFLGRAGVLDDYGCSIHPEQRASLSERSPQTRITPASFTLDRDRLSAASPNGAMELMLGLVRRLYGDGLAEGVEEILSFSGAREGHHHHHH", "values": [{"measurement": "protein production", "value": "not failed"}]}
{"sequence": "MTEIATIEKPAQHGATTRLIDIVFPGDTNHHGTLFGGTGLALMDRVAFIAATRFGRTPFVTASCERIDFRQPARIGHIVEFTARPVKAGRRSLTVEVEMVAETIIGRQQHTCTRGIFHMVAIPEGEDAASYVLPELLTEETPDPSDAVTMVEIVFPDQANSAGRMFGGEAIAYMTKAAFVAASRYCGKLVVLASSERIDFARAIEIGEIVEAQAHVERVGRSSMSIQTKLWSENLLTGERHITATGHFTMVAVDKDHRPATIRDPAEAFSLEKGGA", "values": [{"measurement": "protein production", "value": "not failed"}]}
{"sequence": "MNESSTHDSVADDPTEVSTDTVLDIALSLFSELGFSDAKLEAIAKKSGMSKRMIHYHFGDKRGLYICCLEEAVRRLRPTAEEMYLASAVPVEGVRTIVEAVFHRYVQHPEAVRMLQMENLHHYGKVAEASPLSDQSAITLQLDRLLMLGQDAGAFRPGISAQDVFTLIASIAVFRINSRSTTLNLYGIDMMNGDNTDGMRRMAVDTVLAFLTSNLKSADEDSYLSRPLLSTVTEHVDEEGSYEVAADPFS", "values": [{"measurement": "protein production", "value": "not failed"}]}
{"sequence": "MTSRRLEESMGAVQMGLVNMFKGFQSKVLPPLSPKVVTEEEVNRMLTPSEFLKEMSLTTEQRLAKTRLMCRPQIIELLDMGETTHQKFSGIDLDQALFQPFPSEIIFQNYTPCEVYEVPLILRNNDKIPRLVKVVEESSPYFKVISPKDIGHKVAPGVPSIFRILFTPEENKDYAHTLTCVTEREKFIVPIKARGARAILDFPDKLNFSTCPVKYSTQKILLVRNIGNKNAVFHIKTCRPFSIEPAIGTLNVGESMQLEVEFEPQSVGDHSGRLIVCYDTGEKVFVSLYGAAIDMNIRLDKNSLTIEKTYISMANQRTITIHNRSNIIAHFLWKVFATQQEEDREKYRACDDLIKEEKDETDEFFEECITDPLLREHLSVLSRTFANQRRLVQGDSKLFFNNVFTVEPLEGDVWPNSSAEITVYFNPLEAKLYQQTIYCDILGREIRLPLRIKGEGMGPKIHFNFELLDIGKVFTGSAHCYEAILYNKGSIDALFNMTPPTSALGACFVFSPKEGIIEPSGVQAIQISFSSIILGNFEEEFLVNVNGSPEPVKLTIRGCVIGPTFHFNVPALHFGDVSFGFPHTLICSLNNTSLIPMTYKLRIPGDGLGHKSISYCEQHVDYKRPSWTKEEISSMKPKEFTISPDCGTIRPQGFAAIRVTLCSNTVQKYELALVVDVEGIGEEVLALLITARYCSPACSSPESPPSLQ", "values": [{"measurement": "protein production", "value": "not failed"}]}
{"sequence": "MDLLIALLPALFWGSVVLINVLVGGGPYNQIRGTTLGTLIIGIILLLTGNAKFDDLAVIIVGLISGAFWALGQGYQLKSISLIGVSKTMPISTGLQLVGTTLFSAIFLGEWSTGIQVTLGLVAMVLLVIGIALTSIKGKNEASGGNNKFGKAIPILIISTVGYVVYVVVAQIFGVDGMNALFFQSIGMAIGGLILSAKHETSVKSTMWNIIPGVIWGIGNLFMFYSQPKVGVATSFSFSQLLVIVSTLGGIFLLGERKDKRQMIGIWAGIVLIIIAAFILGNLKG", "values": [{"measurement": "protein production", "value": "failed"}]}
{"sequence": "MWSYDKITDYLMNNLGEKRYKHSLGVMDTAVRLAGIYNEDTEKARIAGLVHDCAKKLPGEKIIEICTNEGYELGDEDIRNSYLLHGLAGRILAKKVIGIDDEDVLNAIEFHTTGRPNMSLLEKIIYIADYIEPGREFKGVDELRKAADEDLNKALLMSFDNTIKFVIDKGGFLHHNTIEARNYLISRKG", "values": [{"measurement": "protein production", "value": "not failed"}]}
